Changes are numbered by the printed parent chain.
B1: unnamed (protein)
chain: MNFPRASRLMQAAVLGGLMAVSAAATAQTNPYARGPNPTAASLEASAGPFTVRSFTVSRPSGYGAGTVYYPTNAGGTVGAIAIVPGYTARQSSIKWWGPRLASHGFVVITIDTNSTLDQPSSRSSQQMAALRQVASLNGTSSSPIYGKVDTARMGVMGWSMGGGGSLISAANNPSLKAAAPQAPWDSSTNFSSVTVPTLIFACENDSIAPVASSALPIYDSMSRNAKQFLEINGGSHSCANSGNSNQALIGKKGVAWMKRFMDNDTRYSTFACENPNSTRVSDFRTANCS
B2: unnamed (protein)
chain: B1 chain with A180I, A212N
B3: unnamed (protein)
chain: B1 chain with A212N, H237A
B4: unnamed (protein)
chain: NPYARGPNPTAASLEASAGPFTVRSFTVSRPSGYGAGTVYYPTNAGGTVGAIAIVPGYTARQSSIKWWGPRLASHGFVVITIDTNSTLDQPSSRSSQQMAALRQVASLNGTSSSPIYGKVDTARMGVMGWSMGGGGSLISAANNPSLKAAAPQAPWDSSTNFSSVTVPTLIFACENDSIAPVNSSALPIYDSMSRNAKQFLEINGGSHSAANSGNSNQALIGKKGVAWMKRFMDNDTRYSTFACENPNSTRVSDFRTANCS
B5: unnamed (protein)
chain: B4 chain with Y58F, A210C
B6: unnamed (protein)
chain: B4 chain with S209F, A210C
B7: unnamed (protein)
chain: B4 chain with R94A, A210C
B8: unnamed (protein)
chain: B4 chain with C174A, A210C
B9: unnamed (protein)
chain: B4 chain with Q153L, A210C
B10: unnamed (protein)
chain: B4 chain with W130H, A210C
B11: unnamed (protein)
chain: B4 chain with C174A
B12: unnamed (protein)
chain: B4 chain with Y58A, A210C
B13: unnamed (protein)
chain: B4 chain with M132A, A210C
B14: unnamed (protein)
chain: B4 chain with S185H, A210C
B15: unnamed (protein)
chain: B4 chain with I179A, A210C
B16: unnamed (protein)
chain: B4 chain with S131A, D177A, H208A, A210C

What was measured:
PET [1] = experiment: Proxy for plastic degradation [Released monomer concentration (HPLC/LC-MS) (TPA)]; conditions: pH 9
PET [2] = experiment: Proxy for plastic degradation [Released monomer concentration (HPLC/LC-MS) (MHET)]; conditions: pH 9
BHET = experiment: Proxy for plastic degradation [Released monomer concentration (HPLC/LC-MS) (MHET+TPA)]; conditions: pH 7.5

| Protein | Proxy for plastic degradation (PET [1]) [nM] | Proxy for plastic degradation (PET [2]) [nM] | Proxy for plastic degradation (BHET) [µM] | other results |
| --- | --- | --- | --- | --- |
| B1 | 0 | 2 | 0.42 |  |
| B2 | 10.5 | 13.4 | 0.31 |  |
| B3 |  |  | 0.03 |  |
| B4 | 0 | 0 | 0.22 |  |
| B5 | 0 | 0 | 0.54 |  |
| B6 |  |  |  | Proxy for plastic degradation (PET [1]; part of the chain shown): 3.5 nM; Proxy for plastic degradation (PET [2]; part of the chain shown): 4 nM; Proxy for plastic degradation (BHET; part of the chain shown): 1.6 µM |
| B7 |  | 1 | 0.6 |  |
| B8 |  |  | 0.26 |  |
| B9 |  | 8 | 1.26 |  |
| B10 |  |  |  | Proxy for plastic degradation (PET [1]; part of the chain shown): 20 nM; Proxy for plastic degradation (PET [2]; part of the chain shown): 20 nM; Proxy for plastic degradation (BHET; part of the chain shown): 1.94 µM |
| B11 |  |  |  | Proxy for plastic degradation (PET [1]; part of the chain shown): 0 nM; Proxy for plastic degradation (PET [2]; part of the chain shown): 0.5 nM |
| B12 | 21 |  | 1.09 |  |
| B13 |  |  | 0.57 |  |
| B14 |  |  | 0.45 |  |
| B15 |  |  | 0.54 |  |
| B16 | 0 | 0 |  |  |
